Columns and labels:
[1] = target: Human Cytokeratin (human); assay: IHC on multi-block FFPE tissue, primary 1:900, K5007 reference
[2] = target: Human Cytokeratin (human); assay: IHC on FFPE tonsil, primary 1:900, EnVision-based detection K5007
[3] = target: Human Cytokeratin (human); assay: IHC on FFPE tonsil, primary 1:900, PNA based detection (D12102 + D12094)
[4] = target: Human Cytokeratin (human); assay: IHC on FFPE tonsil, primary 1:1600, PNA based detection (D12102 + D12094)
[5] = target: Human Cytokeratin (human); assay: IHC on multi-block FFPE tissue, primary 1:900, PNA system (D12102 + D12094)
[6] = target: Human Cytokeratin (human); assay: Double IHC on multi tissue sections, M3515 1:50, GaM-dex-PNA1 + PNA2-dex-HRP, DAB+
[7] = target: Human Cytokeratin (human); assay: Double IHC on multi tissue sections, M3515 1:50, GaM-dex-PNA1 (209-149) + PNA2-dex-HRP (209-157), detection method 1
[8] = target: Human Cytokeratin (human); assay: Double IHC on multi tissue sections, M3515 1:50, GaM-dex-PNA1 (209-149) + PNA2-dex-HRP (209-157), detection method 2
[9] = target: Human Cytokeratin (human); assay: IHC on FFPE tonsil, primary 1:300, PNA based detection (GAM/dextran/PNA1 D12102 + HRP/dextran/PNA2 D12094); score 0 to 3+
Tonsil tissues = assay: IHC on FFPE tonsil, negative control IgG1 1:300, EnVision-based detection K5007
Human Desmin (human) [10] = target: Human Desmin (human) (UniProt P17661); assay: IHC on multi-block FFPE tissue, primary 1:1200, K5007 reference
Human Desmin (human) [11] = target: Human Desmin (human) (UniProt P17661); assay: IHC on multi-block FFPE tissue, primary 1:1200, PNA system (D12102 + D12094)
[12] = target: mouse anti-human BCL2 oncoprotein, Clone 124 (DakoCytomation code No. M0887); assay: IHC on FFPE tonsil: unconjugated M0887 1:100 (0.015 uM) on tissue, then K5007 GaM:HRP 30 min
Human CD68 (human) [13] = target: Human CD68 (human) (UniProt P34810); assay: IHC on multi-block FFPE tissue, primary 1:800, K5007 reference
Sequence of UniProt P34810 (P34810 22-354 limits assumed): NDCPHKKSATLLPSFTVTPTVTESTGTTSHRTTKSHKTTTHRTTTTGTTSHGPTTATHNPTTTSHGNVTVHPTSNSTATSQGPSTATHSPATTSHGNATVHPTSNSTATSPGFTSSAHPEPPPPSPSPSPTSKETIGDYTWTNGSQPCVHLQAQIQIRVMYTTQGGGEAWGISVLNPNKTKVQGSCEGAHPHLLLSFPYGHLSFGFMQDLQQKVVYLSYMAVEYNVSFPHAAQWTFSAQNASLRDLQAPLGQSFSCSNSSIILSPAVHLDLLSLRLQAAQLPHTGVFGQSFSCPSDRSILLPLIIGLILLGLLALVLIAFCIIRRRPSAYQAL

Human CD68 (human) [14] = target: Human CD68 (human) (UniProt P34810); assay: IHC on multi-block FFPE tissue, primary 1:800, PNA system (D12102 + D12094)
Human CD45 LCA (human) [15] = target: Human CD45 LCA (human) (UniProt P08575); assay: IHC on multi-block FFPE tissue, primary 1:1600, K5007 reference
Human CD45 LCA (human) [16] = target: Human CD45 LCA (human) (UniProt P08575); assay: IHC on multi-block FFPE tissue, primary 1:1600, PNA system (D12102 + D12094)
[17] = target: Human Epithelial Membrane Antigen (human) (UniProt P15941); assay: IHC on multi-block FFPE tissue, primary 1:6400, K5007 reference
Sequence of UniProt P15941 (P15941 24-1255 limits assumed): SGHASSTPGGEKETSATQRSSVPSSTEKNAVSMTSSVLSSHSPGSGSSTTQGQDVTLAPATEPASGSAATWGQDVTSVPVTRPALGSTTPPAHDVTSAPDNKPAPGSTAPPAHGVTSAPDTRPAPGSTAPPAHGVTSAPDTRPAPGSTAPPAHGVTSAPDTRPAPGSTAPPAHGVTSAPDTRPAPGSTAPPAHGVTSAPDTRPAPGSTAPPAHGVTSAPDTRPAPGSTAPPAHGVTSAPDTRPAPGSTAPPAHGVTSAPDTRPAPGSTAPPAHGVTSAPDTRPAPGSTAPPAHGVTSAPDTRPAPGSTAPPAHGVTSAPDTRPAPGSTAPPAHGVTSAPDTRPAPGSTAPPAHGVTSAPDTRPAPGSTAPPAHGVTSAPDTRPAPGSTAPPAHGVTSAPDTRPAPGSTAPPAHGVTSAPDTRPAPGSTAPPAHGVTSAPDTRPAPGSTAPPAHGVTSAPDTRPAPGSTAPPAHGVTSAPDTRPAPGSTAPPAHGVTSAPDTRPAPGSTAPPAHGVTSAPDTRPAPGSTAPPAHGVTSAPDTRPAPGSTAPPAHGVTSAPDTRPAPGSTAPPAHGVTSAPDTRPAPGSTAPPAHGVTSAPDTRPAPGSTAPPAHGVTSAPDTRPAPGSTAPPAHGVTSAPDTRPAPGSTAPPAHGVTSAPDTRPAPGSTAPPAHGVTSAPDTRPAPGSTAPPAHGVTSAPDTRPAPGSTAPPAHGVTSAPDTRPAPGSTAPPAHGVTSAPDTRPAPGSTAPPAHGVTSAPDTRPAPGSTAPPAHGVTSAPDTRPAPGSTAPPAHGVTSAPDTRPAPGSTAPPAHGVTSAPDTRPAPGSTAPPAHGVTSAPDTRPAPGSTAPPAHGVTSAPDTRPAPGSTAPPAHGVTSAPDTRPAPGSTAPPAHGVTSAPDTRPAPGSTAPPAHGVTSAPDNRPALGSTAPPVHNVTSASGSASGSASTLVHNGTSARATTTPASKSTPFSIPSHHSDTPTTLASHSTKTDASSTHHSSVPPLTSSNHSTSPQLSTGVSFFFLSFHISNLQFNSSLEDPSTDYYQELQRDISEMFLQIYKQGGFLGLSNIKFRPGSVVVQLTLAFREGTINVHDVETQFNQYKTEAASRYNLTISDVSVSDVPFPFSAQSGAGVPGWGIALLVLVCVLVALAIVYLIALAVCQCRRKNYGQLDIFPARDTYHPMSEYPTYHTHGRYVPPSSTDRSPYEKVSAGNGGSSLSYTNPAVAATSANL

[18] = target: Human Epithelial Membrane Antigen (human) (UniProt P15941); assay: IHC on multi-block FFPE tissue, primary 1:6400, PNA system (D12102 + D12094)
[19] = target: human BCL2 oncoprotein (human) (UniProt P10415); assay: IHC on multi-block FFPE tissue, primary 1:500, K5007 reference
[20] = target: human BCL2 oncoprotein (human) (UniProt P10415); assay: IHC on multi-block FFPE tissue, primary 1:500, PNA system (D12102 + D12094)
Human CD20cy (human) [21] = target: Human CD20cy (human) (UniProt P11836); assay: IHC on multi-block FFPE tissue, primary 1:8000, K5007 reference
Sequence of UniProt P11836 (P11836 whole entry): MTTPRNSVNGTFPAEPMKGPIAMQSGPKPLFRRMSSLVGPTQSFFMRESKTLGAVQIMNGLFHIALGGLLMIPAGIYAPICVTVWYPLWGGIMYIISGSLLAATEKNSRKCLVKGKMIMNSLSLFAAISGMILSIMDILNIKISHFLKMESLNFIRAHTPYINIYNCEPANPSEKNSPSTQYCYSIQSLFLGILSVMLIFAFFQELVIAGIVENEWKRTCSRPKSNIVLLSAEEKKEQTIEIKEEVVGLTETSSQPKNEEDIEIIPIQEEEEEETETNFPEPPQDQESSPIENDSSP

Human CD20cy (human) [22] = target: Human CD20cy (human) (UniProt P11836); assay: IHC on FFPE tonsil, primary 1:8000, EnVision-based detection K5007
Human CD20cy (human) [23] = target: Human CD20cy (human) (UniProt P11836); assay: IHC on FFPE tonsil, primary 1:2000, PNA based detection (D12102 + D12094)
Human CD20cy (human) [24] = target: Human CD20cy (human) (UniProt P11836); assay: IHC on FFPE tonsil, primary 1:8000, PNA based detection (D12102 + D12094)
Human CD20cy (human) [25] = target: Human CD20cy (human) (UniProt P11836); assay: IHC on FFPE tonsil, primary 1:14000, PNA based detection (D12102 + D12094)
Human CD20cy (human) [26] = target: Human CD20cy (human) (UniProt P11836); assay: IHC on multi-block FFPE tissue, primary 1:8000, PNA system (D12102 + D12094)
[27] = target: Human Ki-67 Antigen (human) (UniProt P46013); assay: IHC on multi-block FFPE tissue, primary 1:1200, K5007 reference
Sequence of UniProt P46013 (P46013 whole entry): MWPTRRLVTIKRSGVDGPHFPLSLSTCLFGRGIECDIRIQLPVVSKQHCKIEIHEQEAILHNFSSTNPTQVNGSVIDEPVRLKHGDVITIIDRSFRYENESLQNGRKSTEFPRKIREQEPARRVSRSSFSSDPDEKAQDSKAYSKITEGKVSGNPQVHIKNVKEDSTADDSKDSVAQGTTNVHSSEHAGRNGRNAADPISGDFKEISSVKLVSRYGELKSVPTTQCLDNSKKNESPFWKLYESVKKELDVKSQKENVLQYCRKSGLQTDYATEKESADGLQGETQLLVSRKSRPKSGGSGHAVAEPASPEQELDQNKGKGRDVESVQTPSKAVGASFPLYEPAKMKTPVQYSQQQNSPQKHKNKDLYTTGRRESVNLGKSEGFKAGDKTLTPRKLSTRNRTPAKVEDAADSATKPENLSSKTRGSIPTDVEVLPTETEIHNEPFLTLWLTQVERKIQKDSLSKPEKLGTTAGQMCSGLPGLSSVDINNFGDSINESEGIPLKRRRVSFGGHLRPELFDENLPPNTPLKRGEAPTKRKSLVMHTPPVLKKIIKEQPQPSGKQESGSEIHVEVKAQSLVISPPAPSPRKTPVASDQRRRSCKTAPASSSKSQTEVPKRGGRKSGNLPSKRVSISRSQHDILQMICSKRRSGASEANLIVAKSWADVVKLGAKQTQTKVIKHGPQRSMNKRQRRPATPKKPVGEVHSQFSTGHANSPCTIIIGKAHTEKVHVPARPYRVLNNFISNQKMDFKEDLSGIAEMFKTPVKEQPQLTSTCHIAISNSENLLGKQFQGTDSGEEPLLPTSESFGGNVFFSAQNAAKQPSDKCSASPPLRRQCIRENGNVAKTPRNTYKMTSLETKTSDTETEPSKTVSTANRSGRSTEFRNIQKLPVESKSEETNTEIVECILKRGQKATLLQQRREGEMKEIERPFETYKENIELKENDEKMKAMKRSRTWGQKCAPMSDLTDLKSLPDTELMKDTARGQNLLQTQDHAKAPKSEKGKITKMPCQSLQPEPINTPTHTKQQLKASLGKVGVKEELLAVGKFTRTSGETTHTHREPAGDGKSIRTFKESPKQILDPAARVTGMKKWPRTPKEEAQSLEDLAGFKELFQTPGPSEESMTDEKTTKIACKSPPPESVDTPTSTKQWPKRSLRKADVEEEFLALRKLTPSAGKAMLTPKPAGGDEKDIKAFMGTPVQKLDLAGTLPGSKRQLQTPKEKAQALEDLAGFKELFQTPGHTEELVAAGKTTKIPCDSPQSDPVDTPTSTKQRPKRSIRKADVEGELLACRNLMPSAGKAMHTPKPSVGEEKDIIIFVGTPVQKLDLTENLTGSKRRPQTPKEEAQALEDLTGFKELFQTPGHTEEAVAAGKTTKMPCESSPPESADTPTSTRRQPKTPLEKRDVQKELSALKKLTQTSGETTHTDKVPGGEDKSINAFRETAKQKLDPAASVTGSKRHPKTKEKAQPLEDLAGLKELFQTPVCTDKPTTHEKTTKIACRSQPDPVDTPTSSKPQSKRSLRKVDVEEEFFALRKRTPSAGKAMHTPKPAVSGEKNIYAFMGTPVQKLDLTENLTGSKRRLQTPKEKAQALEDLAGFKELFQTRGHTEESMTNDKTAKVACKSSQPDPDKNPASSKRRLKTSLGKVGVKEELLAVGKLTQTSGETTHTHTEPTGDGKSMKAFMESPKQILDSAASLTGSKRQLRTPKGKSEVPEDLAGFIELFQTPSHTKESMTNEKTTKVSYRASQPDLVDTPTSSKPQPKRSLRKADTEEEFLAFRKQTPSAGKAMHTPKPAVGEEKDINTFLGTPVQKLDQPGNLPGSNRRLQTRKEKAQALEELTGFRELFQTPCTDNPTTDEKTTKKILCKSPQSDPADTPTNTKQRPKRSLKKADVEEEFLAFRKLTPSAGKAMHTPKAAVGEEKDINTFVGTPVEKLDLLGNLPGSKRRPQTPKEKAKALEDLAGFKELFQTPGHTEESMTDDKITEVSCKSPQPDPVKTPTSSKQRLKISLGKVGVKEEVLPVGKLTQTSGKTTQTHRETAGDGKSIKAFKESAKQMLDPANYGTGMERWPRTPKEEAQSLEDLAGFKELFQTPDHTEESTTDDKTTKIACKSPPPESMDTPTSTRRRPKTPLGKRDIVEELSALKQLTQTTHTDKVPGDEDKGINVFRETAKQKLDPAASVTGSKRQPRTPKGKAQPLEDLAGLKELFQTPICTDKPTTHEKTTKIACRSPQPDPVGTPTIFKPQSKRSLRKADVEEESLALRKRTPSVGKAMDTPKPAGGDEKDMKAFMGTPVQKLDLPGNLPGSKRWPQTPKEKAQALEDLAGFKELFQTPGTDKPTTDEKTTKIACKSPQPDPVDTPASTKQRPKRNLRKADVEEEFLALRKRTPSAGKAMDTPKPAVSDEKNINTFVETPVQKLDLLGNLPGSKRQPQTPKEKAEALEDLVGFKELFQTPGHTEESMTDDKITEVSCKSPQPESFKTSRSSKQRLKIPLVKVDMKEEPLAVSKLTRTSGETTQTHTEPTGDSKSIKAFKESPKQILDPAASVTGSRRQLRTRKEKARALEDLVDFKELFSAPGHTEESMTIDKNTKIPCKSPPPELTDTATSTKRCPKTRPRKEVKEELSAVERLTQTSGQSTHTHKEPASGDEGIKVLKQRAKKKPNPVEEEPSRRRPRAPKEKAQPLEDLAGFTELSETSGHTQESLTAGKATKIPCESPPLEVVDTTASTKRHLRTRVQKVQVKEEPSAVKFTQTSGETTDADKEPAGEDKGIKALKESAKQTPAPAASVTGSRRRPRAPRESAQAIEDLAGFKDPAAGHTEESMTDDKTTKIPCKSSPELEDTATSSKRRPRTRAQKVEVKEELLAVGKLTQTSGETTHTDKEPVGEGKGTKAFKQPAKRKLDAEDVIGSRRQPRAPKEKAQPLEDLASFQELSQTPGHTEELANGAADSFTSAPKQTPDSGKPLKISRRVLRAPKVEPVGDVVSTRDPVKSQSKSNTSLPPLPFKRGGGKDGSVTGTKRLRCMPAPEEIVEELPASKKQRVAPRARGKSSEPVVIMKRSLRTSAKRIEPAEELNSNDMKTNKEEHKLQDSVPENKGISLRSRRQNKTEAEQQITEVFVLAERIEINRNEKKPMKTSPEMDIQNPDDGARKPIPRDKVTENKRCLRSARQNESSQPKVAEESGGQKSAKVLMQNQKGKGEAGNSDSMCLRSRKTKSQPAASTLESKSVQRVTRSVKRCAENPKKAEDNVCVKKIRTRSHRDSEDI

[28] = target: Human Ki-67 Antigen (human) (UniProt P46013); assay: IHC on FFPE tonsil, primary 1:1200, EnVision-based detection K5007
[29] = target: Human Ki-67 Antigen (human) (UniProt P46013); assay: IHC on FFPE tonsil, primary 1:400, PNA based detection (D12102 + D12094)
[30] = target: Human Ki-67 Antigen (human) (UniProt P46013); assay: IHC on FFPE tonsil, primary 1:1200, PNA based detection (D12102 + D12094)
[31] = target: Human Ki-67 Antigen (human) (UniProt P46013); assay: IHC on FFPE tonsil, primary 1:2400, PNA based detection (D12102 + D12094)
[32] = target: Human Ki-67 Antigen (human) (UniProt P46013); assay: IHC on multi-block FFPE tissue, primary 1:1200, PNA system (D12102 + D12094)
[33] = target: Human Ki-67 Antigen (human) (UniProt P46013); assay: IHC on multi tissue section, M7240 1:150, 3-layer PNA system with HRP, DAB+
[34] = target: Human Ki-67 Antigen (human) (UniProt P46013); assay: Double IHC on multi tissue sections, M7240 1:150, 3-layer PNA system with AP
[35] = target: Human Ki-67 Antigen (human) (UniProt P46013); assay: Double IHC on multi tissue sections, M7240 1:150, 3-layer PNA system with HRP, detection method 1
[36] = target: Human Ki-67 Antigen (human) (UniProt P46013); assay: Double IHC on multi tissue sections, M7240 1:150, 3-layer PNA system with HRP, detection method 2
[37] = target: Human Ki-67 Antigen (human) (UniProt P46013); assay: IHC on multi tissue section, M7240 1:150, 3-layer PNA system with AP / Permanent Red; first of two scores, taken as the specific one
Human p27 (human) [38] = target: Human p27 (human) (UniProt P46527); assay: IHC on multi-block FFPE tissue, primary 1:400, K5007 reference
Human p27 (human) [39] = target: Human p27 (human) (UniProt P46527); assay: IHC on multi-block FFPE tissue, primary 1:400, PNA system (D12102 + D12094)
[40] = target: Human Estrogen Receptor (human) (UniProt P03372); assay: IHC on multi-block FFPE tissue, primary 1:200, K5007 reference
[41] = target: Human Estrogen Receptor (human) (UniProt P03372); assay: IHC on multi-block FFPE tissue, primary 1:200, PNA system (D12102 + D12094)

Monoclonal Mouse Anti-Human Cytokeratin (DakoCytomation code No. M3515) (antibody)
Specific staining intensity [1]: 1.5 score | Specific staining intensity [2]: 2 score | Specific staining intensity [3]: 2.5 score | Specific staining intensity [4]: 1.5 score | Specific staining intensity [5]: 2 score | specific staining [6]: 3 score | specific staining [7]: 2.5 score | specific staining [8]: 3 score | Specific staining intensity [9]: 3 score

mouse IgG1 negative control (DakoCytomation code No. X0931) (antibody)
Specific staining intensity (Tonsil tissues): 0 score

Monoclonal Mouse Anti-Human Desmin (DakoCytomation code No. M0760) (antibody)
Specific staining intensity (Human Desmin (human) [10]): 1.5 score | Specific staining intensity (Human Desmin (human) [11]): 1.5 score

K5007 GaM:HRP complex (ChemMate EnVision Detection kit Rabbit/Mouse, DakoCytomation code No. K5007 bottle A) (antibody)
Specific staining intensity with K5007 [12]: 3 score

Monoclonal Mouse Anti-Human CD68 (DakoCytomation code No. M0876) (antibody)
Specific staining intensity (Human CD68 (human) [13]): 2 score | Specific staining intensity (Human CD68 (human) [14]): 2 score

Monoclonal Mouse Anti-Human CD45 LCA (DakoCytomation code No. M0701) (antibody)
Specific staining intensity (Human CD45 LCA (human) [15]): 2 score | Specific staining intensity (Human CD45 LCA (human) [16]): 3 score

Monoclonal Mouse Anti-Human Epithelial Membrane Antigen (DakoCytomation code No. M0613) (antibody)
Specific staining intensity [17]: 1.5 score | Specific staining intensity [18]: 2.5 score

mouse anti-human BCL2 oncoprotein, Clone 124 (DakoCytomation code No. M0887) (antibody)
Specific staining intensity [19]: 2 score | Specific staining intensity [20]: 2 score

Monoclonal Mouse Anti-Human CD20cy (DakoCytomation code No. M0755) (antibody)
Specific staining intensity (Human CD20cy (human) [21]): 1.5 score | Specific staining intensity (Human CD20cy (human) [22]): 2 score | Specific staining intensity (Human CD20cy (human) [23]): 3 score | Specific staining intensity (Human CD20cy (human) [24]): 2.5 score | Specific staining intensity (Human CD20cy (human) [25]): 1.5 score | Specific staining intensity (Human CD20cy (human) [26]): 1.5 score

Monoclonal Mouse Anti-Human Ki-67 Antigen (DakoCytomation code No. M7240) (antibody)
Specific staining intensity [27]: 1.5 score | Specific staining intensity [28]: 2 score | Specific staining intensity [29]: 3 score | Specific staining intensity [30]: 2.5 score | Specific staining intensity [31]: 1.5 score | Specific staining intensity [32]: 2 score | Staining intensity score [33]: 2.5 | specific staining [34]: 2 score | specific staining [35]: 1.5 score | specific staining [36]: 1.5 score | staining score [37]: 1

Monoclonal Mouse Anti-Human p27 (DakoCytomation code No. M7203) (antibody)
Specific staining intensity (Human p27 (human) [38]): 1.5 score | Specific staining intensity (Human p27 (human) [39]): 2.5 score

Monoclonal Mouse Anti-Human Estrogen Receptor (DakoCytomation code No. M7047) (antibody)
Specific staining intensity [40]: 2.5 score | Specific staining intensity [41]: 3 score
